{
  "source": "the Human Domainome abundance scans (Beltran et al. 2025)",
  "parents": {"B1": {"name": "LIM and senescent cell antigen-like-containing domain protein 2, residues 13 to 71; numbered along this chain, Q7Z4I7 (parent)", "chain": "AVCQRCQARFSPAERIVNSNGELYHEHCFVCAQCFRPFPEGLFYEFEGRKYCEHDFQML"}},
  "note": "± gives the uncertainty stated by the source.",
  "data": [
    {"variants_of": "B1", "assay": "abundance fitness (aPCA) (normalised: wild type 0, dead -1); higher = more abundant; growth selection in yeast, the domain comes from the species named", "settings": "Homo sapiens", "values": [
      {"variant": "AVCQRCQARFSPAERIVNSNGELYVEHCFVCAQCFRPFPEGLFYEFEGRKYCEHDFQML", "note": "[H25V]", "abundance fitness": "-0.838 ± 0.1"},
      {"variant": "AVCQRCQARFSPAERIVNSNGELYYEHCFVCAQCFRPFPEGLFYEFEGRKYCEHDFQML", "note": "[H25Y]", "abundance fitness": "-0.786 ± 0.26"},
      {"variant": "AVCQRCQARFSPAERIVNSNGELYSEHCFVCAQCFRPFPEGLFYEFEGRKYCEHDFQML", "note": "[H25S]", "abundance fitness": "-0.894 ± 0.095"},
      {"variant": "AVCQRCQARFSPAERIVNSNGELYHEHCFVGAQCFRPFPEGLFYEFEGRKYCEHDFQML", "note": "[C31G]", "abundance fitness": "-0.774 ± 0.085"},
      {"variant": "AVCQRCQARFSPAERIVNSNGELYHEHCFVHAQCFRPFPEGLFYEFEGRKYCEHDFQML", "note": "[C31H]", "abundance fitness": "-0.481 ± 0.13"},
      {"variant": "AVCQRCQARFSPAERIVNSNGELYHEHCFVLAQCFRPFPEGLFYEFEGRKYCEHDFQML", "note": "[C31L]", "abundance fitness": "-0.709 ± 0.058"},
      {"variant": "AVCQRCQARFSPAERIVNSNGELYHEHCFVFAQCFRPFPEGLFYEFEGRKYCEHDFQML", "note": "[C31F]", "abundance fitness": "-0.954 ± 0.1"},
      {"variant": "AVCQRCQARFSPAERIVNSNGELYHEHCFVIAQCFRPFPEGLFYEFEGRKYCEHDFQML", "note": "[C31I]", "abundance fitness": "-0.76 ± 0.11"},
      {"variant": "AVCQRCQARFSPAERIVNSNGELYHEHCFVKAQCFRPFPEGLFYEFEGRKYCEHDFQML", "note": "[C31K]", "abundance fitness": "-1.1 ± 0.15"},
      {"variant": "AVCQRCQARFSPAERIVNSNGELYHEHCFVEAQCFRPFPEGLFYEFEGRKYCEHDFQML", "note": "[C31E]", "abundance fitness": "-0.612 ± 0.11"},
      {"variant": "AVCQRCQARFSPAERIVNSNGELYHEHCFVDAQCFRPFPEGLFYEFEGRKYCEHDFQML", "note": "[C31D]", "abundance fitness": "-0.574 ± 0.11"},
      {"variant": "AVCQRCQARFSPAERIVNSNGELYHEHCNVCAQCFRPFPEGLFYEFEGRKYCEHDFQML", "note": "[F29N]", "abundance fitness": "-0.175 ± 0.12"},
      {"variant": "AVCQRCQARFSPAERIVNSNGELYHEHCYVCAQCFRPFPEGLFYEFEGRKYCEHDFQML", "note": "[F29Y]", "abundance fitness": "-0.2 ± 0.11"},
      {"variant": "AVCQRCQARFSPAERIVNSNGELYHEHCSVCAQCFRPFPEGLFYEFEGRKYCEHDFQML", "note": "[F29S]", "abundance fitness": "-0.155 ± 0.06"},
      {"variant": "AVCQRCQARFSPAERIVNSNGELYHEHCTVCAQCFRPFPEGLFYEFEGRKYCEHDFQML", "note": "[F29T]", "abundance fitness": "-0.011 ± 0.077"},
      {"variant": "AVCQRCQARFSPAERIVNSNGELYHEHCGVCAQCFRPFPEGLFYEFEGRKYCEHDFQML", "note": "[F29G]", "abundance fitness": "-0.019 ± 0.1"},
      {"variant": "AVCQRCQARFSPAERIVNSNGELYHEHCLVCAQCFRPFPEGLFYEFEGRKYCEHDFQML", "note": "[F29L]", "abundance fitness": "-0.011 ± 0.051"},
      {"variant": "AVCQRCQARFSPAERIVNSNGELYHEHCEVCAQCFRPFPEGLFYEFEGRKYCEHDFQML", "note": "[F29E]", "abundance fitness": "-0.326 ± 0.12"},
      {"variant": "AVCQRCQARFSPAERIVNSNGELYHEHCHVCAQCFRPFPEGLFYEFEGRKYCEHDFQML", "note": "[F29H]", "abundance fitness": "0.042 ± 0.11"},
      {"variant": "AVCQRCQARFSPAERIVNSNGELYHEHCPVCAQCFRPFPEGLFYEFEGRKYCEHDFQML", "note": "[F29P]", "abundance fitness": "0.029 ± 0.074"},
      {"variant": "AVCQRCQARFSPAERIVNSNGELYHEHCIVCAQCFRPFPEGLFYEFEGRKYCEHDFQML", "note": "[F29I]", "abundance fitness": "0.015 ± 0.097"},
      {"variant": "AVCQRCQARFSPAERIVNSNGELYHEHCRVCAQCFRPFPEGLFYEFEGRKYCEHDFQML", "note": "[F29R]", "abundance fitness": "-0.141 ± 0.058"},
      {"variant": "AVCQRCQARFSPAERIVNSNGELYHEHCAVCAQCFRPFPEGLFYEFEGRKYCEHDFQML", "note": "[F29A]", "abundance fitness": "0.207 ± 0.16"},
      {"variant": "AVCQRCQARFSPAERIVNSNGELYHEHCQVCAQCFRPFPEGLFYEFEGRKYCEHDFQML", "note": "[F29Q]", "abundance fitness": "-0.184 ± 0.069"},
      {"variant": "AVCQRCQARFSPAERIVNSNGELYHEHCVVCAQCFRPFPEGLFYEFEGRKYCEHDFQML", "note": "[F29V]", "abundance fitness": "-0.083 ± 0.085"},
      {"variant": "AVCQRCQARFSPAERIVNSNGELYHEHCMVCAQCFRPFPEGLFYEFEGRKYCEHDFQML", "note": "[F29M]", "abundance fitness": "0.1 ± 0.077"},
      {"variant": "AVCQRCQARFSPAERIVNSNGELYHEHCCVCAQCFRPFPEGLFYEFEGRKYCEHDFQML", "note": "[F29C]", "abundance fitness": "-0.012 ± 0.097"},
      {"variant": "AVCQRCQARFSPAERIVNSNGELYHEHCWVCAQCFRPFPEGLFYEFEGRKYCEHDFQML", "note": "[F29W]", "abundance fitness": "0.008 ± 0.079"},
      {"variant": "AVCQRCQARFSPAERIVNSNGELYHEHCKVCAQCFRPFPEGLFYEFEGRKYCEHDFQML", "note": "[F29K]", "abundance fitness": "-0.407 ± 0.089"},
      {"variant": "AVCQRCQARFSPAERIVNSNGELYHEHWFVCAQCFRPFPEGLFYEFEGRKYCEHDFQML", "note": "[C28W]", "abundance fitness": "-0.996 ± 0.21"},
      {"variant": "AVCQRCQARFSPAERIVNSNGELYHEHSFVCAQCFRPFPEGLFYEFEGRKYCEHDFQML", "note": "[C28S]", "abundance fitness": "-0.832 ± 0.13"},
      {"variant": "AVCQRCQARFSPAERIVNSNGELYHEHAFVCAQCFRPFPEGLFYEFEGRKYCEHDFQML", "note": "[C28A]", "abundance fitness": "-0.292 ± 0.083"},
      {"variant": "AVCQRCQARFSPAERIVNSNGELYHEHRFVCAQCFRPFPEGLFYEFEGRKYCEHDFQML", "note": "[C28R]", "abundance fitness": "-0.718 ± 0.092"},
      {"variant": "AVCQRCQARFSPAERIVNSNGELYHEHKFVCAQCFRPFPEGLFYEFEGRKYCEHDFQML", "note": "[C28K]", "abundance fitness": "-0.538 ± 0.14"},
      {"variant": "AVCQRCQARFSPAERIVNSNGELYHEHPFVCAQCFRPFPEGLFYEFEGRKYCEHDFQML", "note": "[C28P]", "abundance fitness": "-1.13 ± 0.35"},
      {"variant": "AVCQRCQARFSPAERIVNSNGELYHEHEFVCAQCFRPFPEGLFYEFEGRKYCEHDFQML", "note": "[C28E]", "abundance fitness": "-0.62 ± 0.12"},
      {"variant": "AVCQRCQARFSPAERIVNSNGELYHEHDFVCAQCFRPFPEGLFYEFEGRKYCEHDFQML", "note": "[C28D]", "abundance fitness": "-0.322 ± 0.2"},
      {"variant": "AVCQRCQARFSPAERIVNSNGELYHEHFFVCAQCFRPFPEGLFYEFEGRKYCEHDFQML", "note": "[C28F]", "abundance fitness": "-0.994 ± 0.22"},
      {"variant": "AVCQRCQARFSPAERIVNSNGELYHEHGFVCAQCFRPFPEGLFYEFEGRKYCEHDFQML", "note": "[C28G]", "abundance fitness": "-0.987 ± 0.14"},
      {"variant": "AVCQRCQARFSPAERIVNSNGELYHEHHFVCAQCFRPFPEGLFYEFEGRKYCEHDFQML", "note": "[C28H]", "abundance fitness": "-0.089 ± 0.31"},
      {"variant": "AVCQRCQARFSPAERIVNSNGELYHEHMFVCAQCFRPFPEGLFYEFEGRKYCEHDFQML", "note": "[C28M]", "abundance fitness": "-0.418 ± 0.15"},
      {"variant": "AVCQRCQARFSPAERIVNSNGELYHEHQFVCAQCFRPFPEGLFYEFEGRKYCEHDFQML", "note": "[C28Q]", "abundance fitness": "-0.872 ± 0.19"},
      {"variant": "AVCQRCQARFSPAERIVNSNGELYHEHVFVCAQCFRPFPEGLFYEFEGRKYCEHDFQML", "note": "[C28V]", "abundance fitness": "-0.77 ± 0.098"},
      {"variant": "AVCQRCQARFSPAERIVNSNGELYHEHLFVCAQCFRPFPEGLFYEFEGRKYCEHDFQML", "note": "[C28L]", "abundance fitness": "-1.08 ± 0.13"},
      {"variant": "AVCQRCQARFSPAERIVNSNGELYHEHIFVCAQCFRPFPEGLFYEFEGRKYCEHDFQML", "note": "[C28I]", "abundance fitness": "-0.728 ± 0.2"}
    ]}
  ]
}
